B1: Hal5-10acl2: antibody directed against SLITRK6, produced by CHO cell ATCC PTA-13102; VH SEQ ID NO: 1, VL SEQ ID NO: 2 (antibody, V domains shown)
VH: QVQLVESGGGVVQPGRSLRLSCAASGFTFSSYGMHWVRQAPGKGLEWVAVIWYDGSNQYYADSVKGRFTISRDNSKNTLFLQMHSLRAEDTAVYYCARGLTSGRYGMDVWGQGTTVTVSS
VL: DIVMTQSPLSLPVTPGEPASISCRSSQSLLLSHGFNYLDWYLQKPGQSPQLLIYLGSSRASGVPDRFSGSGSGTDFTLKISRVEAEDVGLYYCMQPLQIPWTFGQGTKVEIKR
modifications: Synthetic heavy chain variable region of Hal5-10acl2; Synthetic light chain variable region of Hal5-10acl2

Assays:
SLITRK6 mRNA = SLITRK6 mRNA expression by Q-PCR in BRAF-mutant melanoma cells under MAPK inhibitor treatment; assay type: cell-based; settings: PLX4032 1 μM alone or with AZD6244 0.1 μM; A375, Lu1205, WM266-4, WM983B, WM35, WM115 cells; 72 h for WM35 and WM115
Description: FIG. 1. SLITRK6 mRNA expression is induced under MAPK inhibitor treatment in BRAF-mutant melanoma cells. A) A375, Lu1205, WM266-4 and WM983B cell lines were treated with a BRAF inhibitor (PLX4032) at 1 μM alone or in combination with a 0.1 μM MEK inhibitor (AZD6244). mRNA fold increase relative to the DMSO control is determined by Q-PCR. The results are presented as the mean±SD of the average of 3 independent experiments. *** p<0.001; T-test. B) BRAF-mutant melanoma cells lines WM35 and WM115 were treated with a BRAF inhibitor (PLX4032, 1 μM) alone or in combination with a MEK inhibitor (AZD6244, 0.1 μM) for 72 h and SLITRK6 mRNA was analyzed by RT-qPCR. Data shown are the means±standard deviation of 3 independent experiments. ** p<0.01; * p<0.05; t-test.

SLITRK6 [1] = assay: Staining of A375 cells for SLITRK6: antibody binding at the membrane; settings: si-Ctl or si-SLITRK6, PLX4032 1 μM alone or with AZD6244 0.1 μM for 48 h
Description: FIG. 5. […] A375 cells were transfected with siRNA control (si-Ctl) or targeting SLITRK6 (si-SLITRK6) before treatment with PLX4032 (1 μM) alone or in combination with AZD6244 (0.1 μM) for 48 h. Cells were then stained for SLITRK6 (green) and DNA was counterstained with DAPI (blue).

SLITRK6 [2] = assay: Staining of A375 cells for SLITRK6: antibody internalization; assay type: cell-based; settings: si-Ctl or si-SLITRK6, PLX4032 1 μM alone or with AZD6244 0.1 μM for 48 h
Description: FIG. 6. […] A375 cells were transfected with siRNA control (si-Ctl) or targeting SLITRK6 (si-SLITRK6) before treatment with PLX4032 (1 μM) alone or in combination with AZD6244 (0.1 μM) for 48 h. Cells were then stained for SLITRK6 (green) and DNA was counterstained with DAPI (blue).

[3] = listed as antibody against SLITRK6

Molecule | SLITRK6 mRNA expression (fold increase relative to the DMSO control) (SLITRK6 mRNA) | binding of the antibody to SLITRK6 at the cell membrane (SLITRK6 [1]) | binding of the antibody to SLITRK6 at the cell membrane (SLITRK6 [1]; [3]) | internalization of the antibody and its target (SLITRK6 [2]) | internalization of the antibody and its target (SLITRK6 [2]; [3])
CCCS(=O)(=O)Nc1ccc(F)c(C(=O)c2c[nH]c3ncc(-c4ccc(Cl)cc4)cc23)c1F [PLX4032] | induced |  |  |  | 
B1 |  | binds to melanoma cells only when the cells are treated with a MAMPK inhibitor | binds its target specifically at the membrane only after MAPK inhibitor treatment | internalizes the tumor cells only after a treatment with a MAPK inhibitor | internalizes its target specifically only after MAPKi treatment

— patent US11471538B2, “Methods and pharmaceutical compositions for the treatment of cancers associated with activation of the MAPK pathway” (INSERM (Institut National de la Santé et de la Recherche …, priority 2017, dated 2022)
